Experimental findings from publication PMC1635251 are described below.

Holding throughout (assay): filter binding
Series [1] addresses T1, HIV-1 reverse transcriptase p66/p51 (HIV-1, UniProt P03366;P03366 600-1159;600-1039).
The target of series [2] is HIV-2 reverse transcriptase (HIV-2, UniProt P04584;P04584 613-1171;613-1051).
Series [3] has as its target T1, HIV-1 reverse transcriptase p66/p51. The source holds these as a separate data set.
For series [4] the target is unchanged. The source holds these as a separate data set.

Usually Kd stands for the free concentration of one partner at which half of the binding sites on the other are occupied at equilibrium, for simple one-to-one binding. A high value points to weaker binding.

HIV-2 reverse transcriptase, sequence (P04584 613-1171, chain 1 of 2): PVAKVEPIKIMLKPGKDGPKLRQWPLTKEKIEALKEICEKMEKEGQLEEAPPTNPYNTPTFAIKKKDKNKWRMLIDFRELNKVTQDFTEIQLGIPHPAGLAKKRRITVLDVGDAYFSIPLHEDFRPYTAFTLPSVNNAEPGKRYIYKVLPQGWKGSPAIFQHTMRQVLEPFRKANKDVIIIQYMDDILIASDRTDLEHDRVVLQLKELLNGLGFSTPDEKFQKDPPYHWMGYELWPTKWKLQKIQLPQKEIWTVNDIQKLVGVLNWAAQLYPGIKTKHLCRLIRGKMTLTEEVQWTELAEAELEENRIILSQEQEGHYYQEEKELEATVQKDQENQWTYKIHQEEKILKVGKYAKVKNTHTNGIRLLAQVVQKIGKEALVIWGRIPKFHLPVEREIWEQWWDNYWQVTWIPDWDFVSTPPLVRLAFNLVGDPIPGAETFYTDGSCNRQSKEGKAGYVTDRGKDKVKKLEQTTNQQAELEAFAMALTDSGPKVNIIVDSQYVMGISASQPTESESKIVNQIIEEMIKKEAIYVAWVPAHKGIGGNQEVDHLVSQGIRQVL
HIV-2 reverse transcriptase, sequence (P04584 613-1051, chain 2 of 2): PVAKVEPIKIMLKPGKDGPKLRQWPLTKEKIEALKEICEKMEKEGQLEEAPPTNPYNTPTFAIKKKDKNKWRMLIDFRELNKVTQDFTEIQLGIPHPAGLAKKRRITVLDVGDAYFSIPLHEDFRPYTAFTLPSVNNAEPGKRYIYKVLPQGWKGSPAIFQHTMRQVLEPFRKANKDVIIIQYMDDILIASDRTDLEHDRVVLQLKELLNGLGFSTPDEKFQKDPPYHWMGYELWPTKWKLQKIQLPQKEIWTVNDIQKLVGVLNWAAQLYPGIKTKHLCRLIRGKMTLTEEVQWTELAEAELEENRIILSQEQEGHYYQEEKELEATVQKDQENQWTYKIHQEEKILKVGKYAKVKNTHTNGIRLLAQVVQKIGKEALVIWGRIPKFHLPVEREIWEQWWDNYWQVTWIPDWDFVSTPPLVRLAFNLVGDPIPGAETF

For the molecule CGACCG (XNA, phosphorothioate) [Hex-S1D-PS], the binding signal in series [1] was 18.3 ± 6 relative binding (unit not printed); in series [2], 6.6 ± 1.7 relative binding (unit not printed).
Regarding TCGTGT (XNA, LNA at position 1) [Hex-S3D-LNA], the binding signal in series [1] was 4.3 ± 0.4 relative binding (unit not printed).
Consider CGACCG (ssDNA) [Hex-S1D], for which the binding signal in series [1] was 5.8 ± 0.6 relative binding (unit not printed).
Same read-out and setting: as for TCGTGT (XNA, fully 2'-OMe) [Hex-S3D-2'OMe], the figure is 2 ± 0.1 relative binding (unit not printed).
Take CGUGU (ssRNA) [Hex-S3R pentamer, 5'-shortened]: in series [3], the binding result is “no binding”.
Take UCGUG (ssRNA) [Hex-S3R pentamer, 3'-shortened]: the binding result in series [3] is recorded as “no binding”.
As to TCGTGT (XNA, phosphorothioate) [Hex-S3D-PS], the binding signal in series [1] was 52.8 ± 9.8 relative binding (unit not printed); in series [2], 24.9 ± 3.6 relative binding (unit not printed).
As to TCGTGT (ssDNA) [Hex-S3D], in series [1], the binding signal is 8.1 ± 1 relative binding (unit not printed).
Still for that read-out and setting: the value for UCGUGU (XNA, 4-thio-U at position 4) [4-thioU-Hex-S3R] was 9.8 ± 0.5 relative binding (unit not printed).
Regarding UCGUGU (ssRNA) [Hex-S3R], the Kd in series [4] was 5.3 ± 0.5 µM.
For the molecule CGACCG (XNA, fully 2'-OMe) [Hex-S1D-2'OMe], the binding signal in series [1] is 0.5 ± 0.1 relative binding (unit not printed).
